From the supplement of paper PMC11865577

Assays:
Assay in all cases: pull-down binding Z-score (relative to library population); higher = stronger binding
[1] = test system: G-clamp-N3 (biotin conjugate); conditions: RNA library: Library-1 (pre-miRNA loops + repeats)
How it was run: (§1)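 Binding is given as a Z-score against the library mean and standard deviation, calculated after removing the beads-only signal and averaging barcoded replicate probes without their highest and lowest values. Cy5- or Cy3-end-labelled RNA library (1 μg) was heat-folded in phosphate/NaCl/KCl buffer and incubated 60 min at 25 °C with streptavidin beads bearing 100 pmol of biotin-conjugated small molecule. After three washes, RNA eluted in hot SDS was hybridised to a DNA barcode microarray for 20 h at 55.5 °C.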

[2] = test system: TO-3-N3 (biotin conjugate); conditions: RNA library: Library-2
How it was run: as §1

[3] = test system: TO-3-N3-2 (biotin conjugate); conditions: RNA library: Library-2
How it was run: as §1

TO-N3 (biotin conjugate) = conditions: RNA library: Library-2
How it was run: as §1

[4] = test system: TO-N3-2 (biotin conjugate); conditions: RNA library: Library-2
How it was run: as §1

| Sequence | pull-down binding Z-score [1] | pull-down binding Z-score [2] | pull-down binding Z-score [3] | pull-down binding Z-score (TO-N3 (biotin conjugate)) | pull-down binding Z-score [4] |
| --- | --- | --- | --- | --- | --- |
| UGCAGUGAGCAACCUACACAACUGCA [hsa-mir-5589] | -0.716 | -0.0632 | -0.317 | -0.0697 | -0.188 |
| UUUCUGUUGUCUGAAAGCAGA [hsa-mir-515-1_515-2] | -0.445 | 0.216 | 0.223 | 0.262 | -0.0707 |
| GAUGCUGUCUAUUCUAAAGGUAC [hsa-mir-101-1] | -0.819 | -0.772 | -0.32 | -0.577 | 0.0666 |
| GUCUGUCACUGGGGAAGUC [hsa-mir-4682] | 1.71 | 0.735 | 0.276 | 1.19 | 0.993 |
| GGUUUUUACCAUUAAAACC [hsa-mir-548aw] | -0.37 | -0.656 | -0.448 | -1.01 | -1.44 |
| CUGGGAGGUGUGAUCCCGUGCUUCCUGG [hsa-mir-3689b] | -0.593 | -0.788 | -0.408 | -0.713 | 0.409 |
| UUUAUGCCUGUUAGCAUGAAAAAAGAGGCUGAGAA [hsa-mir-7515] | -0.395 | -0.5 | 0.165 | -0.368 | 0.0418 |
| UUUCUAUAACUGGAUGAAA [hsa-mir-498] | -0.372 | -0.457 | -0.431 | -0.488 | -0.778 |
| GAUGUUUCUGCCAGUUUAGCGUC [hsa-mir-505] | -0.68 | 0.0284 | -0.0968 | 0.0886 | 0.324 |
| UGUCAUUACUUUUAAUGGUA [hsa-mir-548h-1] | -1.35 | -0.328 | -0.357 | -0.56 | -1.24 |
| CGCUAGUAGUGGCG [hsa-mir-3960] | 0.808 | -0.152 | -0.644 | -0.435 | -0.869 |
| AUUCAGACUCAGGU [hsa-mir-921] | -0.651 | -0.232 | -0.0856 | -0.204 | -0.0427 |
| CUGGGAGGUGUGAUCCUGUGCUUCCUGG [hsa-mir-3689a] | -0.339 | 0.678 | 0.507 | 0.863 | 1.15 |
| CCAUUUACUUGAACCUUUAGGAGUGA [hsa-mir-489] | -0.68 | 0.389 | -0.05 | 0.319 | 0.625 |
| CCUGCUGUGUGAAACAAAAGUAAG [hsa-mir-302c] | -1.08 | -0.422 | 0.0469 | 0.103 | 0.474 |
| GAGGCCUCUUGCCAUGGCCUCC [hsa-mir-7113] | -1.1 | -0.486 | -0.378 | -0.406 | 0.766 |
| UCUUCUUGGAGUCAGGAAAA [hsa-mir-320d-2] | -0.411 | -0.553 | -0.458 | -0.663 | -0.514 |
| GUGGACAGAGGCAAAACUCUAACUUC [hsa-mir-6078] | -1.45 | -0.31 | -0.41 | 0.0919 | 0.491 |
| GGCGUGGACAACUUGCU [hsa-mir-3943] | 0.951 | -0.271 | -0.0337 | 0.131 | 0.912 |

| Sequence | pull-down binding Z-score [1] | pull-down binding Z-score [2] | pull-down binding Z-score [3] | pull-down binding Z-score (TO-N3 (biotin conjugate)) | pull-down binding Z-score [4] |
| --- | --- | --- | --- | --- | --- |
| GAGCCCUGAGGGGCUC [hsa-mir-6087] | 1.46 | 0.542 | -0.303 | 0.283 | -0.191 |
| UGCAGUUAGUGAAGCAGCUUAGAAUCUACUGCC [hsa-mir-18b] | 0.0114 | 0.192 | 0.625 | 0.989 | 1.47 |
| AAGCUCUUGCAGUAGGUUU [hsa-mir-1206] | 0.242 | -0.604 | -0.358 | -0.46 | -0.369 |
| UUGCUCACGGUAAGAAAAACAUGAGUAA [hsa-mir-8062] | 0.431 | 0.553 | 0.384 | 0.238 | -0.388 |
| CAACUACUCAGGAGGCUG [hsa-mir-566] | -0.123 | -0.196 | -0.179 | 0.0834 | 0.304 |
| UCCAGGAUCUGGGUUUUGAGGUCUUGG [hsa-mir-4309] | 0.525 | 0.835 | 0.267 | 0.673 | 0.345 |
| GGCACUGGGUAUCGUAGGUGCC [hsa-mir-3116-1] | 2.06 | 0.661 | 0.127 | 0.377 | 0.718 |
| CUGAGAGUGUCAUGGUGGAGCCUCCG [hsa-mir-4784] | 0.795 | 0.121 | -0.0723 | 0.735 | 1.55 |
| AGGCUCUGGGUCCGGCUUACUCCCUAGCUUACUGUCCUCAGAACCC [hsa-mir-6071] | -0.386 | -0.173 | 0.226 | 0.311 | 0.924 |
| CUACUCAAGGCUAG [hsa-mir-4266] | -0.163 | 1.32 | 0.132 | 1.35 | -0.0352 |
| UUGAUGUCAGGUUAUCCCCAAGCAUAACCUCAC [hsa-mir-4639] | -1.21 | -0.576 | -0.186 | -0.499 | -0.0627 |
| AAACGUGCUCAGUGUCUUUAUAACAGGAAAGCCGUAAAC [hsa-mir-1272] | -0.626 | 0.0446 | 0.284 | 0.528 | 0.894 |
| CUGUGAGGACAUCCAGGGUCACAG [hsa-mir-125a] | 3.76 | 0.423 | 0.169 | 0.903 | 0.969 |
| GGAGGCACUGCCAGGGCUGCCCAC [hsa-mir-1202] | -0.43 | 0.521 | 0.277 | 1.21 | 2.09 |
| UAGAUGUUAUAAAAAUAUAUAUCUG [hsa-mir-4680] | 0.187 | -0.708 | -0.189 | -1.08 | -1.07 |
| CCGUAUAUAUAUAUAUAUAUAUAUAGAUAUCUCCAUAUAUAUGG [hsa-mir-620] | 1.15 | -0.865 | -0.53 | -1.16 | -0.872 |
| GACCUGGAUGUGUAGGAGCUAAGACACACUCCAGGGG [hsa-mir-920] | 1.89 | 0.595 | 0.531 | 0.902 | 1.41 |
| UUUGUCAUUACUUUAAUUACUUUACGUUUCAUUAAUGACAAA [hsa-mir-548h-4] | -0.754 | -1.23 | -0.563 | -1.43 | -1.46 |
